The values below come from patent US7560106B2, “Rationally designed heparinases derived from heparinase I and II and methods of sequencing therewith” (Massachusetts Institute of Technology, priority 1998, dated 2009).

Like-named read-outs stand apart in the source and are kept apart here.

Series [1] is described as follows: Heparinase I UV 232 nm activity assay as a function of heparin concentration (Kcat, Km). It counts as biochemical, porcine. The following applies: for Kcat / Km: heparin 0 to 4 mg/ml, 5 mM calcium acetate, pH 7.0; for Kcat: 100 mM MOPS. From the text:
Heparinase II Activity Assay. Native heparinase II from Flavobacterium heparinum, was purified as described previously (Godavarti, R., and Sasisekharan, R (1996c) Biochem. Biophys. Res. Comm. 229, 770-777). The UV 232 nm assay to quantify native heparinase II enzymatic activity was similar to that reported for heparinase I (Bernstein, H., Yang, V. C., Cooney, C. L., Langer, R. (1988) Meth. Enzym. 137, 515-29). Briefly, the course of the reaction is monitored by measuring the increase in absorbance at 232 nm as a function of time under saturating substrate concentrations. With heparin as the substrate, the reaction was carried out at a concentration of 4 mg/ml in 50 mM sodium phosphate buffer, pH 7.3. With 2 mg/ml heparan sulfate, the reaction was measured in 50 mM sodium phosphate buffer, pH 6.9 (Sasisekharan, R., Moses, M. A., Nugent, M. A., Cooney, C. L., Langer, R. (1994) Proc. Natl. Acad. Sci., USA 91, 1524-1528). The temperature for all enzymatic activity measurements was kept constant at 35° C.
Heparinase I Activity Assay. The UV 232 nm assay to quantify heparinase I enzymatic activity was similar to that described in Example 1. With heparin as the substrate, the reaction was carried out at a concentration of 4 mg/ml in 100 mM MOPS, 5 mM calcium acetate, pH 7.0. The temperature for all enzymatic activity measurements was kept constant at 30° C. For the inactivation kinetic profiles, activity was measured as outlined above at precise time points.
(§1) Heparinase I Activity Assays: The UV 232 nm assay was used as described in Example 1. When measuring the enzyme activity as a function of heparin concentration, heparin concentrations varied from 0 to 4 mg/ml at a fixed calcium concentration of 5 mM (100 mM MOPS buffer/5 mM calcium acetate, pH 7.0). The data was then fit to an non-linear equation to determine Kcat and Km of heparinases I. Heparinase mutant activity was also investigated as a function of calcium concentration ranging from 0 to 10 mM. […] Activity is expressed as IU-μmol product formed/min using ∈=−3800-M^−1CM^−1.

The nature of series [2]: Fluorescence competition for calcium with probe rhod-5N. The following applies: apparent dissociation constant of rhod-5N for calcium with 3 μM enzyme; lower Kd′ means less binding of calcium by heparinase I. The protocol:
Fluorescence Competition. To determine the effect of mutations in CB-1 and CB-2 on the ability of heparinase I to bind calcium, mutants with a dramatic drop in activity were tested for their ability to bind calcium. To accomplish this, we examined the ability of heparinase I and mutants to compete for free calcium with the calcium-chelating fluorescence probe rhod-5N. The fluorescence probe rhod-5N was dissolved and diluted in buffer A (10 mM MOPS and 100 mM KCl, pH 6.5). Buffer A and the water used in the study were run through a Chelex Resin column to remove trace amounts of calcium. In the absence of calcium, rhod-5N is not fluorescent, however upon binding calcium rhod-5N is fluorescent with an emission λmax of 576 nm. Before titration, rhod-5N and heparinase I were added to a quartz cuvette such that the final concentration of rhod-5N in the cuvette was 0.3 μM and heparinase I is 3 μM. To this solution was added aliquots of a calcium solution (20 mM) which had been previously equilibrated with 0.3 μM rhod-5N and 3 μM heparinase I. The stock was added such that the calcium concentration in the cuvette was 50, 100, 200, 500, 1000, 5000 μM. After allowing the solution to come to equilibrium, the sample was scanned from 560 nm to 600 nm with the excitation wavelength fixed at […]. The plot of I/Imax versus [Ca^++] was fitted to a non-linear equation to determine the apparent Kd (Kd′) value. Thus, Kd′ values represent the apparent dissociation constants for the fluorescence probe rhod-5N. Control samples without heparinase I were included in the study.

Series [3] is described as follows: Heparinase I activity as a function of calcium concentration (K0.5, calcium dependence). The series is classed as biochemical. The protocol: as §1
Series [4] in a line: Heparin-POROS affinity chromatography. The series is classed as binding. The following applies: for NaCl: salt concentration at which enzyme elutes from heparin-POROS column, 10 mM Tris, 1 mM EDTA pH 7.0. The protocol: Heparin-POROS chromatography: About 30-40 μg of -L r-heparinase I and the various mutant enzymes were injected into a heparin POROS (4.6 mm×100) column (PerSeptive BioSystems, Framingham, Mass.) connected to BioCAD system (PerSeptive BioSystems). Proteins were eluted using a linear gradient of […] NaCl in 10 min (10 mM Tris, 1 mM EDTA pH 7.0) and monitored at 210 nm. EDTA was added to chelate any calcium ions that may be present in the buffers.

Setting [5] is: calcium concentration at which half of the maximum enzyme activity was observed, calcium 0 to 10 mM, Table 4 first K0.5 column.

B1: E381A: heparinase I CB-2 mutant, glutamate 381 changed to alanine (protein, UniProt Q05819 22-384, looked up, variant E381A)
Heparin lyase I: QQKKSGNIPYRVNVQADSAKQKAIIDNKWVAVGINKPYALQYDDKLRFNGKPSYRFELKAEDNSLEGYAAGETKGRTELSYSYATTNDFKKFPPSVYQNAQKLKTVYHYGKGICEQGSSRSYTFSVYIPSSFPDNATTIFAQWHGAPSRTLVATPEGEIKTLSIEEFLALYDRMIFKKNIAHDKVEKKDKDGKITYVAGKPNGWKVEQGGYPTLAFGFSKGYFYIKANSDRQWLTDKADRNNANPENSEVMKPYSSEYKTSTIAYKMPFAQFPKDCWITFDVAIDWTKYGKEANTILKPGKLDVMMTYTKNKKPQKAHIVNQQEILIGRNDDDGYYFKFGIYRVGNSTVPVTYNLSGYSATAR
In general, Km refers to the substrate concentration at which the rate is half of its maximum. B1: in series [1], the “decrease in Kcat compared to wild-type r-heparinase I” value (“decrease in Kcat” below) is “about 10 fold”, the Kcat amounted to 10 s⁻¹ and the Michaelis-Menten constant (Km) is 0.52 µM. Besides, in series [2], the Kd amounted to 175 µM. Further, the K0.5 in series [3] (Table 4 second K0.5 column) came out at 180 µM. Moreover, the K0.5 in series [3] (setting [5]) turned out to be 180 µM. The NaCl in series [4] was 505 mM.

B2: G378A/Y379A: heparinase I CB-2 double mutant (protein, UniProt Q05819 22-384, looked up, variant G378A Y379A)
Heparin lyase I: QQKKSGNIPYRVNVQADSAKQKAIIDNKWVAVGINKPYALQYDDKLRFNGKPSYRFELKAEDNSLEGYAAGETKGRTELSYSYATTNDFKKFPPSVYQNAQKLKTVYHYGKGICEQGSSRSYTFSVYIPSSFPDNATTIFAQWHGAPSRTLVATPEGEIKTLSIEEFLALYDRMIFKKNIAHDKVEKKDKDGKITYVAGKPNGWKVEQGGYPTLAFGFSKGYFYIKANSDRQWLTDKADRNNANPENSEVMKPYSSEYKTSTIAYKMPFAQFPKDCWITFDVAIDWTKYGKEANTILKPGKLDVMMTYTKNKKPQKAHIVNQQEILIGRNDDDGYYFKFGIYRVGNSTVPVTYNLSAASETAR
Turning to B2, in series [1], the Kcat was determined as 9 s⁻¹ and the Km came to 0.31 µM. The Kd in series [2] came out at 136 µM. In addition, in series [3] (Table 4 second K0.5 column), the K0.5 worked out at 90 µM. Further, in series [3] (setting [5]), the K0.5 was found to be 90 µM. Besides, in series [4], the “elution salt concentration / heparin binding relative to wild-type r-heparinase I, in words” value is reported as “comparable to wild-type r-heparinase I” and the NaCl is recorded as 489 mM.

B3: -L: wild-type recombinant heparinase I expressed without the putative F. heparinum leader sequence (protein, UniProt Q05819 22-384, looked up)
Heparin lyase I: QQKKSGNIPYRVNVQADSAKQKAIIDNKWVAVGINKPYALQYDDKLRFNGKPSYRFELKAEDNSLEGYAAGETKGRTELSYSYATTNDFKKFPPSVYQNAQKLKTVYHYGKGICEQGSSRSYTFSVYIPSSFPDNATTIFAQWHGAPSRTLVATPEGEIKTLSIEEFLALYDRMIFKKNIAHDKVEKKDKDGKITYVAGKPNGWKVEQGGYPTLAFGFSKGYFYIKANSDRQWLTDKADRNNANPENSEVMKPYSSEYKTSTIAYKMPFAQFPKDCWITFDVAIDWTKYGKEANTILKPGKLDVMMTYTKNKKPQKAHIVNQQEILIGRNDDDGYYFKFGIYRVGNSTVPVTYNLSGYSETAR
modifications: recombinant, without leader sequence
For B3, the Kcat in series [1] worked out at 92 s⁻¹. Also, in series [1], the Km is 3.94 µM. For the same molecule, the Kd in series [2] worked out at 206 µM. Further, the K0.5 in series [3] (Table 4 second K0.5 column) and in series [3] (setting [5]) was 270 µM each time. The NaCl in series [4] is 482 ± 3 mM; in series [4] (listed as wild-type r-heparinase I) it was “about 482 mM”.

B4: N375A: heparinase I CB-2 mutant, asparagine 375 changed to alanine (protein, UniProt Q05819 22-384, looked up, variant N375A)
Heparin lyase I: QQKKSGNIPYRVNVQADSAKQKAIIDNKWVAVGINKPYALQYDDKLRFNGKPSYRFELKAEDNSLEGYAAGETKGRTELSYSYATTNDFKKFPPSVYQNAQKLKTVYHYGKGICEQGSSRSYTFSVYIPSSFPDNATTIFAQWHGAPSRTLVATPEGEIKTLSIEEFLALYDRMIFKKNIAHDKVEKKDKDGKITYVAGKPNGWKVEQGGYPTLAFGFSKGYFYIKANSDRQWLTDKADRNNANPENSEVMKPYSSEYKTSTIAYKMPFAQFPKDCWITFDVAIDWTKYGKEANTILKPGKLDVMMTYTKNKKPQKAHIVNQQEILIGRNDDDGYYFKFGIYRVGNSTVPVTYALSGYSETAR
For B4, in series [1], the “decrease in Kcat” value is “about 10 fold”, the Kcat was determined as 10 s⁻¹ and the Km came out at 0.88 µM. Moreover, the “decrease in Kcat” value in series [1] (listed as N375) is on record as “more than 9 fold”. For the same molecule, the Kd in series [2] was 216 µM. In addition, the K0.5 in series [3] (Table 4 second K0.5 column) turned out to be 60 µM. Further, the K0.5 in series [3] (setting [5]) was 60 µM. For the same molecule, in series [4], the “elution salt concentration / heparin binding relative to wild-type r-heparinase I, in words” value was “comparable to wild-type r-heparinase I” and the NaCl turned out to be 490 mM.

B5: E207A/D210A/D212A: heparinase I CB-1 triple mutant (protein, UniProt Q05819 22-384, looked up, variant E207A D210A D212A)
Heparin lyase I: QQKKSGNIPYRVNVQADSAKQKAIIDNKWVAVGINKPYALQYDDKLRFNGKPSYRFELKAEDNSLEGYAAGETKGRTELSYSYATTNDFKKFPPSVYQNAQKLKTVYHYGKGICEQGSSRSYTFSVYIPSSFPDNATTIFAQWHGAPSRTLVATPEGEIKTLSIEEFLALYDRMIFKKNIAHDKVAKKAKAGKITYVAGKPNGWKVEQGGYPTLAFGFSKGYFYIKANSDRQWLTDKADRNNANPENSEVMKPYSSEYKTSTIAYKMPFAQFPKDCWITFDVAIDWTKYGKEANTILKPGKLDVMMTYTKNKKPQKAHIVNQQEILIGRNDDDGYYFKFGIYRVGNSTVPVTYNLSGYSETAR
For B5, in series [1], the Kcat amounted to 25 s⁻¹ and the Michaelis constant (Km) came out at 0.73 µM. The Kd in series [2] was 151 µM. In addition, in series [3] (Table 4 second K0.5 column), the K0.5 is 810 µM. In addition, the K0.5 in series [3] (setting [5]) stood at 810 µM. The NaCl in series [4] came out at 540 mM.
